Changes are numbered by the printed parent chain.
Columns and labels:
C9ORF72-SMCR8^M2 complex = target: T1, C9ORF72-SMCR8^M2 complex (human, UniProt Q96LT7;Q8TEV9, T862A | F863A | H865A | L867A); test: pull-down
T1 sequence 1: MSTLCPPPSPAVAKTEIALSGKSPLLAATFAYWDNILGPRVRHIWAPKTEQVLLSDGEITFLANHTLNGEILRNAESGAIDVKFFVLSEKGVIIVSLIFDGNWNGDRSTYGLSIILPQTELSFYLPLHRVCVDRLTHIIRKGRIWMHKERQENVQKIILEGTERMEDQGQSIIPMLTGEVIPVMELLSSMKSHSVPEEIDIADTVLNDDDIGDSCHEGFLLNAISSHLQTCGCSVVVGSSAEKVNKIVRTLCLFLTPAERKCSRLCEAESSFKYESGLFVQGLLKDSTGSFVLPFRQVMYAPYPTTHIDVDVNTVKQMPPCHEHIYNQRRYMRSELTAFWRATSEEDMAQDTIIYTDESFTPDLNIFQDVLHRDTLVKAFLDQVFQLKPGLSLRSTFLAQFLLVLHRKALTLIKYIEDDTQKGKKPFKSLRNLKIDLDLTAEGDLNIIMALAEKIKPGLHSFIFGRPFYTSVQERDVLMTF
T1 sequence 2: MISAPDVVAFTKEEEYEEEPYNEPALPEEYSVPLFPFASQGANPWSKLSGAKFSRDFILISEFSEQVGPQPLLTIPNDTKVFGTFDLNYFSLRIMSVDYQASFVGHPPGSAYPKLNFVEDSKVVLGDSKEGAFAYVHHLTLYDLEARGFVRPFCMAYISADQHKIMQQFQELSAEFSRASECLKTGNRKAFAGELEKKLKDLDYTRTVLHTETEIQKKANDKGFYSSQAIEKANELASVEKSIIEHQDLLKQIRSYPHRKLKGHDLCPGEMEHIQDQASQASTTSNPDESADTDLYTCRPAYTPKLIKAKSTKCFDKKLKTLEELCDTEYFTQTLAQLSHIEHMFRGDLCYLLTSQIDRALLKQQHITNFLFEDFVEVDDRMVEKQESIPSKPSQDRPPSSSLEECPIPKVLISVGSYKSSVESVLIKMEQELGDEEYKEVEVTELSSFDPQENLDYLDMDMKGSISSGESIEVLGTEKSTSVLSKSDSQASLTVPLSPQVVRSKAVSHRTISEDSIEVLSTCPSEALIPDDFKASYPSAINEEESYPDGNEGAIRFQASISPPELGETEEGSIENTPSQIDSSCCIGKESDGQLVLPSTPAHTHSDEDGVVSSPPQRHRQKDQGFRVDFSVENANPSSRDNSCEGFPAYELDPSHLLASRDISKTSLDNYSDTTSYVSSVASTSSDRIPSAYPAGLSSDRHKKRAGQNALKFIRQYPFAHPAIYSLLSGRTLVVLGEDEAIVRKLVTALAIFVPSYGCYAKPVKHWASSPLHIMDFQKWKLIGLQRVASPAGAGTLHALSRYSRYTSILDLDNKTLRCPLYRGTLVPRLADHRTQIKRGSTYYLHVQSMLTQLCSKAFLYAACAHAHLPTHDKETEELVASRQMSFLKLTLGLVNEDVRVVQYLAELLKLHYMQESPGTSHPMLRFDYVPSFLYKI

C9ORF72-SMCR8^M3 complex = target: T2, C9ORF72-SMCR8^M3 complex (human, UniProt Q96LT7;Q8TEV9, E907A | K910A | Y913A | M914A); test: pull-down
T2 sequence 1: T1 sequence 1
T2 sequence 2: T1 sequence 2 with A862T, A863F, A865H, A867L, E907A, K910A, Y913A, M914A

C9ORF72-SMCR8 complex = target: T3, C9ORF72-SMCR8 complex (human, UniProt Q96LT7;Q8TEV9); test: SEC
T3 sequence 1: T1 sequence 1
T3 sequence 2: T1 sequence 2 with A862T, A863F, A865H, A867L

C9ORF72 = target: T4, C9ORF72 (human, UniProt Q96LT7 1-481); test: AUC
T4 sequence: T1 sequence 1

AUC = target: the molecule itself; test: AUC

B1: WDR41 (WD40 repeat-containing protein 41) (natural protein)
chain: MLRWLIGGGREPQGLAEKSPLQTIGEEQTQNPYTELLVLKAHHDIVRFLVQLDDYRFASAGDDGIVVVWNAQTGEKLLELNGHTQKITAIITFPSLESCEEKNQLILTASADRTVIVWDGDTTRQVQRISCFQSTVKCLTVLQRLDVWLSGGNDLCVWNRKLDLLCKTSHLSDTGISALVEIPKNCVVAAVGKELIIFRLVAPTEGSLEWDILEVKRLLDHQDNILSLINVNDLSFVTGSHVGELIIWDALDWTMQAYERNFWDPSPQLDTQQEIKLCQKSNDISIHHFTCDEENVFAAVGRGLYVYSLQMKRVIACQKTAHDSNVLHVARLPNRQLISCSEDGSVRIWELREKQQLAAEPVPTGFFNMWGFGRVSKQASQPVKKQQENATSCSLELIGDLIGHSSSVEMFLYFEDHGLVTCSADHLIILWKNGERESGLRSLRLFQKLEENGDLYLAV
C9ORF72-SMCR8^M2 complex
  binding result: binds
C9ORF72-SMCR8^M3 complex
  binding result: binds
C9ORF72-SMCR8 complex
  stoichiometry N: 1

B2: SMCR8 Longin domain (SMCR8^Longin), co-expressed with C9ORF72 (domain or fragment)
chain: MISAPDVVAFTKEEEYEEEPYNEPALPEEYSVPLFPFASQGANPWSKLSGAKFSRDFILISEFSEQVGPQPLLTIPNDTKVFGTFDLNYFSLRIMSVDYQASFVGHPPGSAYPKLNFVEDSKVVLGDSKEGAFAYVHHLTLYDLEARGFVRPFCMAYISADQHKIMQQFQELSAEFSRASECLKTGNRKAFAGELEKKLKDLDYTRTVLHTETEIQKKANDKGFYSSQAIEKANELASVEKSIIEHQDLLKQIRSYPHRKLKGHDLCPGEMEHIQDQASQASTTSNPDESADTDLYTCRPAYTPKLIKAKSTKCFDKKLKTLEELCDTEYFTQTLAQLSHIEHMFRGDL
C9ORF72
  binding result: binds

B3: C9ORF72-SMCR8-WDR41 complex (complex)
chain 1: T1 sequence 1
chain 2: T1 sequence 2 with A862T, A863F, A865H, A867L
chain 3: B1 chain
AUC
  stoichiometry N: 2

Reference: publication doi:10.1101/2020.04.16.045708 (bioRxiv, 2020)
